Among the targets are human glucagon receptor (human, UniProt P47871 26-477); human GLP-1 receptor (human, UniProt P43220 24-463); hGLP-1R (Homo sapiens, UniProt P43220).
What all share (test): cell-based or functional assay
The next experiment addresses T1, human GIP receptor (human, UniProt P48546 22-466).
T1 sequence (looked up): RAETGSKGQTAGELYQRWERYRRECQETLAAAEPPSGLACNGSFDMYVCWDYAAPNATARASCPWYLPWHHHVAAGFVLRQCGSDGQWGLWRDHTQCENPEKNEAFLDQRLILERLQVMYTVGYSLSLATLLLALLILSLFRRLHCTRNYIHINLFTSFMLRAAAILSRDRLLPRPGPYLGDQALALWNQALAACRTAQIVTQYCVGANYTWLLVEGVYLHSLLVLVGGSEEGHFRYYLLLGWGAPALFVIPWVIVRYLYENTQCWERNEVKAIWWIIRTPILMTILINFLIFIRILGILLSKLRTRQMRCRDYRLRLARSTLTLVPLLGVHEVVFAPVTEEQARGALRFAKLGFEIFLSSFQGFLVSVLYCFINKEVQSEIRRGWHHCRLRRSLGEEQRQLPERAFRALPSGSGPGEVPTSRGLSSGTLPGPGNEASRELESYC

Experiment [1] concerns the target T2, human GIP receptor (human) (UniProt P48546).
T2 sequence (looked up): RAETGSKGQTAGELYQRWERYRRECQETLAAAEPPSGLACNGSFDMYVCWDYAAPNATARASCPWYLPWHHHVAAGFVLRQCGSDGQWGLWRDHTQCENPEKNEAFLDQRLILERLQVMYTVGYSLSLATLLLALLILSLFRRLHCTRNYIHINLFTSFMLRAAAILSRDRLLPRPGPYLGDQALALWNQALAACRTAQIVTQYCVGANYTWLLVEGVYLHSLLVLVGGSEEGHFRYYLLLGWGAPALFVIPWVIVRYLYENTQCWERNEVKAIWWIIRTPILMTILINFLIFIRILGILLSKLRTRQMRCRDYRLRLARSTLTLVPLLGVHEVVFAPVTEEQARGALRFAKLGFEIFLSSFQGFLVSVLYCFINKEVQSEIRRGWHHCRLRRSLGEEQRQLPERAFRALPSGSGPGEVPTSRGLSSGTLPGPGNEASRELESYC

Experiment [2] deals with human glucagon receptor (human) (UniProt P47871).

B1: Example 299 (peptide)
peptide: YXEGTXTSDXSIXLDXKAQXXFIXXLIKGGPSSGAPPPS
modifications: Y-Aib-EGT-αMeF(2F)-TSD-4Pal-SI-αMeL-LD-Orn-K((2-[2-(2-Amino-ethoxy)-ethoxy]-acetyl)2-(γ-Glu)-CO-(CH2)10-CH3)AQ-Aib-Orn-FI-(D-Glu)-αMeY-LIK((2-[2-(2-Amino-ethoxy)-ethoxy]-acetyl)2-(γ-Glu)-CO-(CH2)10-CH3)GGPSSGAPPPS-NH2
For the molecule B1, the figures for the “cAMP EC50 (1.0% HSA)” value with human glucagon receptor, with human GIP receptor and with human GLP-1 receptor were more than 9950 nM, 0.204 nM and 2.58 nM, respectively. Besides, the “cAMP Emax (1.0% HSA)” value in the experiment with human GLP-1 receptor was found to be 102%. The cAMP EC50 is 0.0104 nM in experiment [1], 0.126 nM with hGLP-1R and more than 9950 nM in experiment [2]. Also, the results for the cAMP Emax (in experiment [1]; with hGLP-1R) were 101% and 103%, respectively.

B2: Example 343 (peptide)
peptide: YXEGTXTSDYXIXLDXIAQXEFIKXLIKGGPSSGAPPPS
modifications: Y-Aib-EGT-αMeF(2F)-TSDY-Aib-I-αMeL-LD-Orn-IAQ-Aib-EFIK((2-[2-(2-Amino-ethoxy)-ethoxy]-acetyl)3-(γ-Glu)-CO-(CH2)12-CO2H)-αMeY-LIK((2-[2-(2-Amino-ethoxy)-ethoxy]-acetyl)3-(γ-Glu)-CO-(CH2)12-CO2H)GGPSSGAPPPS-NH2
On to B2, for which the “cAMP EC50 (1.0% HSA)” value with human glucagon receptor is more than 9950 nM; with human GIP receptor, 2.38 nM; with human GLP-1 receptor, 20.2 nM. Moreover, the entries for the “cAMP Emax (1.0% HSA)” value with human GIP receptor and with human GLP-1 receptor were 90.2% and 98.2%, respectively.

B3: Example 293 (peptide)
peptide: YXEGTXTSDKSIXLDXKAQXEXIXXLIEGGPSSGAPPPS
modifications: Y-Aib-EGT-αMeF(2F)-TSDK((2-[2-(2-Amino-ethoxy)-ethoxy]-acetyl)2-(γ-Glu)-CO-(CH2)10-CH3)SI-αMeL-LD-Orn-K((2-[2-(2-Amino-ethoxy)-ethoxy]-acetyl)2-(γ-Glu)-CO-(CH2)10-CH3)AQ-Aib-E-αMeF-I-(D-Glu)-αMeY-LIEGGPSSGAPPPS-NH2
Turning to B3, the “cAMP EC50 (1.0% HSA)” value in the experiment with human glucagon receptor was more than 9950 nM; with human GIP receptor, 0.987 nM; in the experiment with human GLP-1 receptor it was 10.7 nM. Also, the entries for the “cAMP Emax (1.0% HSA)” value in the experiment with human GIP receptor and with human GLP-1 receptor were 96.6% and 99.4%, respectively. The cAMP EC50 was 0.00915 nM in experiment [1], 0.102 nM with hGLP-1R and more than 9950 nM in experiment [2]. The cAMP Emax (in experiment [1]; with hGLP-1R) was 102% each time.

B4: Example 345 (peptide)
peptide: YXEGTXTSDXXIXLDXIAQXEFIKXLIKGGPSSGAPPPS
modifications: Y-Aib-EGT-αMeF(2F)-TSD-4Pal-Aib-I-αMeL-LD-Orn-IAQ-Aib-EFIK((2-[2-(2-Amino-ethoxy)-ethoxy]-acetyl)3-(γ-Glu)-(10-(4-carboxyphenoxy)decanoyl))-αMeY-LIK((2-[2-(2-Amino-ethoxy)-ethoxy]-acetyl)3-(γ-Glu)-(10-(4-carboxyphenoxy)decanoyl))GGPSSGAPPPS-NH2
Consider B4, for which the “cAMP EC50 (1.0% HSA)” value was more than 9950 nM with human glucagon receptor, 0.731 nM with human GIP receptor and 11.8 nM in the experiment with human GLP-1 receptor.

B5: Example 318 (peptide)
peptide: YXEGTXTSDVXIXLDXKAQXKFIXXLIEGGPSSGAPPPS
modifications: Y-Aib-EGT-αMeF(2F)-TSDV-Aib-I-αMeL-LD-Orn-K((2-[2-(2-Amino-ethoxy)-ethoxy]-acetyl)2-(γ-Glu)-CO-(CH2)12-CO2H)AQ-Aib-K((2-[2-(2-Amino-ethoxy)-ethoxy]-acetyl)2-(γ-Glu)-CO-(CH2)12-CO2H)FI-(D-Glu)-αMeY-LIEGGPSSGAPPPS-NH2
In the case of B5, the “cAMP EC50 (1.0% HSA)” value in the experiment with human glucagon receptor was more than 9950 nM; in the experiment with human GIP receptor, 5.42 nM; with human GLP-1 receptor, 28.7 nM. For the same molecule, the cAMP EC50 in experiment [1] is 0.0402 nM; in the experiment with hGLP-1R, 0.219 nM; in experiment [2] it was more than 9950 nM. Further, the cAMP Emax in experiment [1] was found to be 106%; with hGLP-1R it was 99.9%.

B6: Example 319 (peptide)
peptide: YXEGTXTSDVXIXLDXKAQXKFIXXLIEGGPSSGAPPPS
modifications: Y-Aib-EGT-αMeF(2F)-TSDV-Aib-I-αMeL-LD-Orn-K((2-[2-(2-Amino-ethoxy)-ethoxy]-acetyl)2-(γ-Glu)-(10-(4-carboxyphenoxy)decanoyl))AQ-Aib-K((2-[2-(2-Amino-ethoxy)-ethoxy]-acetyl)2-(γ-Glu)-(10-(4-carboxyphenoxy)decanoyl))FI-(D-Glu)-αMeY-LIEGGPSSGAPPPS-NH2
Regarding B6, the “cAMP EC50 (1.0% HSA)” value with human glucagon receptor is more than 9950 nM; in the experiment with human GIP receptor, 3.35 nM; in the experiment with human GLP-1 receptor, 28.1 nM. The “cAMP Emax (1.0% HSA)” value with human GLP-1 receptor worked out at 114%. Moreover, the cAMP EC50 in experiment [1] is 0.0196 nM; with hGLP-1R, 0.18 nM; in experiment [2], more than 9950 nM. The cAMP Emax in experiment [1] amounted to 98.1%; with hGLP-1R, 100%.

B7: Example 346 (peptide)
peptide: YXEGTXTSDYXIXLDXIAQXEFIKXLIKGGPSSGAPPPS
modifications: Y-Aib-EGT-αMeF(2F)-TSDY-Aib-I-αMeL-LD-Orn-IAQ-Aib-EFIK(2-[2-(2-Amino-ethoxy)-ethoxy]-acetyl)3-(γ-Glu)-(10-(4-carboxyphenoxy)decanoyl)-αMeY-LIK((2-[2-(2-Amino-ethoxy)-ethoxy]-acetyl)3-(γ-Glu)-(10-(4-carboxyphenoxy)decanoyl)GGPSSGAPPPS-NH2)
Turning to B7, the “cAMP EC50 (1.0% HSA)” value with human glucagon receptor is more than 9950 nM; with human GIP receptor, 1.83 nM; with human GLP-1 receptor it was 19 nM. Further, the “cAMP Emax (1.0% HSA)” value was determined as 83.9% with human GIP receptor and 97.7% with human GLP-1 receptor.

B8: Example 335 (peptide)
peptide: YXEGTXTSDXSIXLDXKAQXEFIXXLIKGGPSSGAPPPS
modifications: Y-Aib-EGT-αMeF(2F)-TSD-hTyr-SI-αMeL-LD-Orn-K((2-[2-(2-Amino-ethoxy)-ethoxy]-acetyl)2-(γ-Glu)-CO-(CH2)10-CH3)AQ-Aib-EFI-(D-Glu)-αMeY-LIK((2-[2-(2-Amino-ethoxy)-ethoxy]-acetyl)2-(γ-Glu)-CO-(CH2)10-CH3)GGPSSGAPPPS-NH2
For B8, the “cAMP EC50 (1.0% HSA)” value with human glucagon receptor was more than 9950 nM; in the experiment with human GIP receptor, 1.04 nM; in the experiment with human GLP-1 receptor, 12.3 nM.

B9: Example 301 (peptide)
peptide: YXEGTXTSDYXIXLDXKAQXEFIXXLIKGGPSSGAPPPS
modifications: Y-Aib-EGT-αMeF(2F)-TSDY-Aib-I-αMeL-LD-Orn-K((2-[2-(2-Amino-ethoxy)-ethoxy]-acetyl)2-(γ-Glu)-CO-(CH2)10-CH3)AQ-Aib-EFI-(D-Glu)-αMeY-LIK((2-[2-(2-Amino-ethoxy)-ethoxy]-acetyl)2-(γ-Glu)-CO-(CH2)10-CH3)GGPSSGAPPPS-NH2
As to B9, the “cAMP EC50 (1.0% HSA)” value with human glucagon receptor was more than 9950 nM; with human GIP receptor, 0.919 nM; with human GLP-1 receptor it was 12.9 nM. Also, the “cAMP Emax (1.0% HSA)” value in the experiment with human GIP receptor was 85.5%. Further, the results for the cAMP EC50 (in experiment [1]; in the experiment with hGLP-1R; in experiment [2]) were 0.0128 nM, 0.175 nM and more than 9950 nM, respectively. Further, the cAMP Emax in experiment [1] stood at 97.4%; with hGLP-1R, 99.2%.
